Test results as given in the supplement of paper PMC10567573.

Assay: protein stability index of a GFP-peptide fusion (GPS, HEK-293T) (PSI 1-6); higher = more stable
Settings: c terminus: native
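Also: lentivirally expressed fusion library, cells FACS-sorted into six equal-sized GFP/DsRed ratio bins, PSI computed from sequencing read fractions per bin weighted by bin number.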

## DGWIRVSSDNVADLHEKYSGSTPQ [PSMB5 addQ]
parent: NP_002788.1
  protein stability index: 3.53

## CQPISFSGFGAEDDDLGGLGLGPQ [POLD2 addQ]
parent: NP_006221.1
  protein stability index: 2.97

## EQRNSRWNTVLRAVKAKTHHLEPQ [TRPA1 addQ]
parent: NP_015628.1
  protein stability index: 4.94

## LPALFTDLYSQEITAEEAREALPQ [SNF8 addQ]
parent: NP_009172.2
  protein stability index: 5.05
